Biological target: recombinant human zonulin/pre-HP2 with a 6×His tag at the C-terminus, from baculovirus-infected Sf9 cells (UniProt P00738)
Sequence (P00738 19-406, tags left off): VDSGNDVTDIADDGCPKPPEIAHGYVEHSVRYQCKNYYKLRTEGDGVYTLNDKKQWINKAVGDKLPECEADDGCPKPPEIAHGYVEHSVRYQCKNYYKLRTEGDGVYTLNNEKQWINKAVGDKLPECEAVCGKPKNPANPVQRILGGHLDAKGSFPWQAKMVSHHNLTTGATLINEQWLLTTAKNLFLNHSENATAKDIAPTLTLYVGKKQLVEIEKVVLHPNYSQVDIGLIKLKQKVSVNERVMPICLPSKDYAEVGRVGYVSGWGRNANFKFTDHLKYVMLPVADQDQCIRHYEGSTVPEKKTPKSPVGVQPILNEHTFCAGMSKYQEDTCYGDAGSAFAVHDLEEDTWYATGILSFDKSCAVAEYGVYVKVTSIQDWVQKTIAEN

Substance | proteolytic cleavage, SDS-PAGE
matriptase | Matriptase, urokinase, thrombin, and plasma kallikrein did not cleave pre-HP2
plasma kallikrein | Matriptase, urokinase, thrombin, and plasma kallikrein did not cleave pre-HP2
plasmin | plasmin caused complete degradation of the protein
thrombin | Matriptase, urokinase, thrombin, and plasma kallikrein did not cleave pre-HP2
trypsin (intestinal serine protease; trypsin-agarose beads, Sigma T-1763) | treatment with the intestinal serine protease trypsin led to the appearance of two major bands that migrated with molecular weights compatible with the a2 and b subunits of zonulin
urokinase | Matriptase, urokinase, thrombin, and plasma kallikrein did not cleave pre-HP2

From patent publication US20120107329
